From US20260250410A1 (SICHUAN HUIYU PHARMACEUTICAL, published 2026)

Tests used:
[1] = target: T1, human CDCP1 on tumor cells (human, UniProt Q9H5V8 30-836); assay: cell-based or functional assay
T1 sequence (looked up): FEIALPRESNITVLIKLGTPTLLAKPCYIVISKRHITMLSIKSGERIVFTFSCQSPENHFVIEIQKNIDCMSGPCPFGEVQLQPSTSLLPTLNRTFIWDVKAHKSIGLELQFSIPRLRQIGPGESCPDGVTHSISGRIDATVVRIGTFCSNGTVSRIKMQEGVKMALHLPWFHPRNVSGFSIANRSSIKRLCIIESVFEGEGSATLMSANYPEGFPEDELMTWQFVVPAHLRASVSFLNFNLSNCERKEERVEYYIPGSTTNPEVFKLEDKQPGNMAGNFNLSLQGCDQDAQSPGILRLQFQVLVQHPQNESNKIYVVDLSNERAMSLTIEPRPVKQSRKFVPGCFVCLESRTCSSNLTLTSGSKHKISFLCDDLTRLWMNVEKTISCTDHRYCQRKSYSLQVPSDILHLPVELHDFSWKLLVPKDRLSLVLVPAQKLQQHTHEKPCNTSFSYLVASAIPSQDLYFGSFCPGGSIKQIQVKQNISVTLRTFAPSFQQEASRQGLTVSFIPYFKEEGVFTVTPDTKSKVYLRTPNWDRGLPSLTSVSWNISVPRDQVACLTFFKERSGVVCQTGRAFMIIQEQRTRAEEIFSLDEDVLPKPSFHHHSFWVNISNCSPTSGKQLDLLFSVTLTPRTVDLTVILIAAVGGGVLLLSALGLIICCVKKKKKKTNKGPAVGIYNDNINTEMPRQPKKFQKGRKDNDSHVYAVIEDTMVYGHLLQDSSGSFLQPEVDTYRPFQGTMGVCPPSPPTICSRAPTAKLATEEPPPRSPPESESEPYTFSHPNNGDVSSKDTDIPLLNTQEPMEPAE

[2] = target: T2, HuCDCP1-C (human, UniProt Q9H5V8 30-667); assay: ELISA, coated antigen
T2 construct: range 30-667; expressed in HEK-293T, purified by Fc/his tag; also called human CDCP1-C; full-length extracellular domain of human CDCP1; not shown: Fc or his tag
T2 sequence (looked up): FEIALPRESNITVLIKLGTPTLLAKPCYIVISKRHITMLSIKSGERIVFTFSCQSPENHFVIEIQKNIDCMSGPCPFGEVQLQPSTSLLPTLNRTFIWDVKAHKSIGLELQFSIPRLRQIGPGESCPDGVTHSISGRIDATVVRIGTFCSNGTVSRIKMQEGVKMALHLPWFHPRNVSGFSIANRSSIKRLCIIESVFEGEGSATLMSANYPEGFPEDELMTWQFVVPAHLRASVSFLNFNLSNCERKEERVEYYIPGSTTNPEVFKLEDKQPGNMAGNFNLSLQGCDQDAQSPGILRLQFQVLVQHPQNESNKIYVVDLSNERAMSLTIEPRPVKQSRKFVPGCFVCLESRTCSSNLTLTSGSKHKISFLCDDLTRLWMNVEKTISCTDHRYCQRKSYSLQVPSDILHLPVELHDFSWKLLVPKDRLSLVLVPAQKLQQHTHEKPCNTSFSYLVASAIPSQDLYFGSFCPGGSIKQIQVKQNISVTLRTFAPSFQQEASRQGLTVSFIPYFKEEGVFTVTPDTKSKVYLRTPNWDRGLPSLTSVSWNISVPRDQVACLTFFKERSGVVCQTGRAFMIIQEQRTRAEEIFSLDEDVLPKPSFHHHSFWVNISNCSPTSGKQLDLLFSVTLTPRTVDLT
Description: (§1) The candidate antibodies obtained from Example 6 were subjected to gene cloning, constructed into an expression vector for a small amount of expression in CHO cells, and purified with an Fc affinity column (AT Protein A Diamond Plus. No. AA402312). Antibody purity was analyzed by HPLC and determined by Nanodrop. High-throughput affinity assay was carried out for a small amount of antibodies by Caterra. […] At the same time, 2 μg/ml antigen human CDCP1-C and 2 μg/ml human CDCP1-B were used for coating, and the antigen-antibody binding capacity was tested by ELISA for verification.

[3] = target: T3, huCDCP1-his (human, UniProt Q9H5V8 30-667, limits assumed); assay: SPR (Caterra), antigen immobilized
T3 construct: also called human CDCP1 antigen; not shown: his tag
T3 sequence (looked up): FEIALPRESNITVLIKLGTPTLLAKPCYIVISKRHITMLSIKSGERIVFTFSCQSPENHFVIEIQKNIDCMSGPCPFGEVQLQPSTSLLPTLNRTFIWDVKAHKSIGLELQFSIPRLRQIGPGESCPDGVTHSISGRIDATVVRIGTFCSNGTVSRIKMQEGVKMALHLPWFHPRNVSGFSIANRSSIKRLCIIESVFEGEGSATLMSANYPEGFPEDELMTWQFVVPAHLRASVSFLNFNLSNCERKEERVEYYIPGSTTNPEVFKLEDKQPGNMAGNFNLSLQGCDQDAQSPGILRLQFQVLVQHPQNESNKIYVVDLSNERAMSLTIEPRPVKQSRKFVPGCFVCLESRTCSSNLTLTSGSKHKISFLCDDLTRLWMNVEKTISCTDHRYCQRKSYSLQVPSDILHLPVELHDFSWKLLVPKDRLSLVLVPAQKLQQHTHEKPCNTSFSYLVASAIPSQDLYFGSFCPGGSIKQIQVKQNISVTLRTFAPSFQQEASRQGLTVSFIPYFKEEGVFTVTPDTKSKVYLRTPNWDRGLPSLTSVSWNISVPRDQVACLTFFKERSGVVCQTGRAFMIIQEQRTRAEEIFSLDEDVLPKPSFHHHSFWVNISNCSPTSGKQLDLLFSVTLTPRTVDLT
Description: as §1

[4] = target: T1, human CDCP1 on tumor cells; assay: laser confocal microscopy, HCC1806 cells, dye-labeled antibody
Text: The lysosomes were labeled with red fluorescence, and the relative position changes and colocalization of green fluorescence and red fluorescence in the cells were detected to determine whether the antibodies were colocalized with lysosomes after endocytosis into the cells.

B1: G10F6-MMAE (antibody, V domains shown)
VH: EVKLVESGPGILQPSQTLSLTCSFSGFSLSTSGMGVSWVRQPSGKGLEWLAHIYWDDDKRYNPSLKGRLTISKDTPRNQVFLEITSVDTTDTATYYCARVPGNWDEDAMDYWGQGTTVTVSS
VL: DIQMTQSPLSLPVSLGDQASISCRSSQNIVHTNGNTYLEWYLQKVGQSPKLLIYKVSNRFSGVPDRFSGSGSGTDFTLKISRVEAEDLGVYYCFQGSHVPYTFGGGTKLEIK
modifications: vc-MMAE coupled after reduction, sites not stated; DAR 3.6
IC50 (nM), killing of HCT116 cells (120 h), CellTiter-Glo [1]: 1.29 nM | IC50 (nM), killing of MDA-MB-231 cells (120 h), CellTiter-Glo [1]: > 40 nM | IC50 (nM), killing of PC3 cells (96 h), CellTiter-Glo [1]: 0.0106 nM

B2: SB4 (antibody, V domains shown)
VH: QVQLQQSGAELVRPGTSVKISCKASGYTFTNYWLGWVKQRPGHGLEWIGDNYPGDNYRNFNEKFKGKATLTTDASSSTAYLQLSSLISEDSAVYFCTRSGGSRYYTMDYWGQGTSVTVSS
VL: DIVMTQAAFSNPVTLGTSASISCRSSRSLLHNNGITYLYWYLQKPGQSPQLLIYQMSNLASGVPDRFHSSGSGTDFTLSISRVEAEDVGVYYCAQNLDLPYTFGGGTKLEIK
notes: single B cell antibody, expressed in CHO
EC50 [2]: 0.071 nM | Kd [3]: 7.66 nM

B3: 1CP-064 (antibody, V domains shown)
VH: EVKLVESGPGILQPSQTLSLTCSFSGFSLSTSGMGVGWIRQPSGKGLEWLAHIWWDDVKRYNPALKSRLTISKDTSSSQVFLKIASVDTADTATYYCARMGGKVPWFAYWGQGTTVTVSS
VL: DVVMTQTPASLAVSLGQRATISCRASESVDSYGNSFMHWYQQKPGQPPKLLIYLASNLESGVPARFSGSGSRTDFTLTIDPVEADDAATYYCQQNNEDPWTFGGGTKLEIK
notes: murine hybridoma mAb
binding result [4]: binds

B4: 1CP-062 (antibody, V domains shown)
VH: EVKLVESGPGLVAPSQSLSITCTVSGFSLTTYGVHWVRQPPGKGLEWLVVIWSDGNTTYNSALKSRLSINKDNSKSQVFLKMNSLQTDDTAMYYCAKNYRNYDYAMDYWGQGTTVTVSS
VL: DIVMTQTPASLAVSLGQRATISCRASESVDSYGNSFMHWYQQKPGQPPKLLIYRASNLESGIPARFSGSGSRTDFTLTINPVEADDVATYYCQQSNEDPYTFGGGTKLEIK
notes: murine hybridoma mAb
binding result [4]: binds

B5: 6A7-MMAE (antibody, V domains shown)
VH: EVQLKESGAELVRPGASVKVSCKASGYSFTSYWMNWVKQRPGQGLEWIGMIHPSDSETKLNQKFRDRASLTVDKSSSTAYMQLSSPTSEDSAVYYCTINYESFYYAMDYWGQGTTVTVSS
VL: DIVMTQSPASLAVSLGQRATISCRASKSVSTSGYSYMHWYQQKPGQPPKLLLYLASNLESGVPARFSGSGSGADFTLNIHPVEEEDAATYYCLHSRELPYTFGGGTKLEIK
modifications: vc-MMAE coupled after reduction, sites not stated; DAR 3.6
IC50 (nM), killing of HCT116 cells (120 h), CellTiter-Glo [1]: 5.84 nM | IC50 (nM), killing of MDA-MB-231 cells (120 h), CellTiter-Glo [1]: > 40 nM | IC50 (nM), killing of PC3 cells (96 h), CellTiter-Glo [1]: 0.0527 nM

B6: SB7 (antibody, V domains shown)
VH: QVQLQQSGPELVSPGESVKISCKGSGYTFTDYAVHWVKQSHSKSLEWIGVKSVYYGITKYSQNFKDKATMTVDKSSSTAYMELARLTSEDSAIYYCARDSYGSSRGYFDYWGQGTTLTVSS
VL: DIKMTQSPSSIYVSPGERVTITCKASQDINSFLSWFQQKPGKSPKTLIYRANRLVDGVPSRFSGSGSGQDYSLTISSLEYEDMGIYYCLQYDEFPRTFGGGTKLEIK
notes: as for B2
EC50 [2]: 0.034 nM | Kd [3]: 1.74 nM

B7: SB6 (antibody, V domains shown)
VH: QGQMQQSGAELVKPGASVKLSCKTSGFTFNSSYITWLKQKPGQSLEWIAWIFAGTGGTYYNEKFTDKAQLTVDTTSSTAYMQFSSLTTEDSAIYYCARHGLGYDYWGQGTTLTVSS
VL: SIVMTQTPKFLLVSAGDRVTITCKASQSVNTDVAWYQQKSGQSPKLLIYSASNRYTGVPDRFTGSGYGTDFTFTISTVQAEDLAVYFCQQDHSSPPWTFGGGTKLEIK
notes: as for B2
EC50 [2]: 0.027 nM | Kd [3]: 0.722 nM
